Reference: the supplement of paper PMC9876800

Test system: peptide library, one residue held at a place counted from the S/T acceptor
Assay: relative phosphorylation of the sub-library (ratio to the mean residue at this position); higher = residue favoured
Summary of the method: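 Human or orthologue kinase constructs, purified and recombinant, were incubated under kinase-specific conditions in 384-well plates with biotinylated degenerate peptide sub-libraries. Each sub-library fixed one residue at one position around a central Ser/Thr. Incubations lasted 90 min with peptides at 50 μM and 50 μM ATP spiked with γ-32P-ATP, after which spots on streptavidin membranes were phosphorimaged and quantified by densitometry. Relative sub-library phosphorylation is a ratio to the mean residue at that position.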

Sequence of RPS6KB2, construct: Full length, human (Q9UBS0 whole entry, looked up): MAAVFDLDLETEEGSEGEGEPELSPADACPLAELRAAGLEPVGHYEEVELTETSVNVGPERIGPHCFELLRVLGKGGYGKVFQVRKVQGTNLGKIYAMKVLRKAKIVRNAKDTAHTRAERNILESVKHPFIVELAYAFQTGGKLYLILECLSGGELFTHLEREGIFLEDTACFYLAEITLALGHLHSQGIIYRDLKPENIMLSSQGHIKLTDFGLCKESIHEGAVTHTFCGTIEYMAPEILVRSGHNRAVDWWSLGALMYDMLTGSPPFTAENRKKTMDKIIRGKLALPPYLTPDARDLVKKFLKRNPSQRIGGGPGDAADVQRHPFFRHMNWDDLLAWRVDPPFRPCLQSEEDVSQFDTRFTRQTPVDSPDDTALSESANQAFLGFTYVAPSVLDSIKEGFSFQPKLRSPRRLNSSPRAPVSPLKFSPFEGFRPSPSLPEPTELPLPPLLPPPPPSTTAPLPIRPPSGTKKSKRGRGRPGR
Sequence of STK16, construct: Full length, human (O75716 whole entry, looked up): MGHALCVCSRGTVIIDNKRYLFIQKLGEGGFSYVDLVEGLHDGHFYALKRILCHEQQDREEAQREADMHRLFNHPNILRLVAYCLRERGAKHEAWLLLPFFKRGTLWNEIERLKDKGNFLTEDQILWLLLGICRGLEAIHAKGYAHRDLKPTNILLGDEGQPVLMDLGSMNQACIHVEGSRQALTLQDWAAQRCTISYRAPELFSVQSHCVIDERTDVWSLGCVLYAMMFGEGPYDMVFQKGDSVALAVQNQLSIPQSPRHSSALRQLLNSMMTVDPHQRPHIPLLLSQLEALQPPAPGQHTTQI
Sequence of STK32B, construct: Full length, human (Q9NY57 whole entry, looked up): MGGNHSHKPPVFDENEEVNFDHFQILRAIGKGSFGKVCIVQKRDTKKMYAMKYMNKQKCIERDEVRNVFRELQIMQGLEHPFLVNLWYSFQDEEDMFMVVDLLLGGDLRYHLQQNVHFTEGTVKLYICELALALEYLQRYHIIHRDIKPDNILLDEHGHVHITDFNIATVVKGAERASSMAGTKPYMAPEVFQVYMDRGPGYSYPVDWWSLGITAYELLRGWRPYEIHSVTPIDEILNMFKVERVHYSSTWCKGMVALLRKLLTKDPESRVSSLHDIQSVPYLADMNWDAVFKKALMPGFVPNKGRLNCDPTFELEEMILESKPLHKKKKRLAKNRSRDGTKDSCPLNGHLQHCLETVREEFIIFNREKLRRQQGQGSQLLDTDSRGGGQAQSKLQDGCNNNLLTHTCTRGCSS

RPS6KB2, construct: Full length, human (from UniProt Q9UBS0)
relative phosphorylation
Details	at +1	at +2	at +3	at +4	at -1	at -2	at -3	at -4	at -5
A fixed	0.79	1.22	1.17	1	0.797	0.703	0.597	0.963	0.777
D fixed	0.72	0.659	0.823	1.07	1.08	0.468	0.415	0.699	0.634
E fixed	1.07	0.594	0.891	0.933	0.764	0.467	0.386	0.709	0.569
F fixed	1.32	0.706	0.912	0.863	0.822	0.626	0.459	0.705	0.611
G fixed	0.854	1.27	1.14	1.2	0.76	0.701	0.554	1.07	0.961
H fixed	0.971	1.58	1.18	1.17	1.01	1.11	0.903	1.05	1
I fixed	1.22	0.745	0.82	0.733	0.734	0.552	0.421	0.737	0.571
K fixed	0.989	1.09	1.08	1.19	1.63	2.59	2.04	1.97	2.19
L fixed	0.979	0.781	0.897	0.774	0.835	0.866	0.475	0.647	0.584
M fixed	1.11	0.961	0.869	0.849	0.903	0.702	0.453	0.77	0.566
N fixed	1.06	1.51	1.06	1.03	1.59	0.803	0.625	0.938	0.784
P fixed	0.614	0.914	1.05	1.25	0.931	0.548	0.55	0.937	0.834
Q fixed	1.13	1.02	1.17	1.1	1.03	0.882	0.731	1.08	0.945
R fixed	0.954	1.52	1.01	0.973	1.44	3.95	6.7	2.31	3.84
V fixed	1.09	0.88	0.849	0.747	0.855	0.58	0.425	0.794	0.607
W fixed	0.979	0.776	1.1	1.16	0.774	0.674	0.697	0.828	0.734
Y fixed	1.15	0.778	0.98	0.952	1.03	0.772	0.573	0.789	0.789
pThr fixed	1.17	0.868	0.923	1.34	0.624	0.484	0.446	0.703	0.596
pTyr fixed	1.39	0.96	1.2	1.32	1.8	0.552	0.473	0.767	0.779

STK16, construct: Full length, human (from UniProt O75716)
relative phosphorylation
Details	at +1	at +2	at +3	at +4	at -1	at -2	at -3	at -4	at -5
A fixed	0.727	2.01	1.04	1	0.863	1.44	0.99	1.12	1.1
D fixed	0.32	0.668	0.537	0.519	0.334	0.409	0.474	0.885	0.694
E fixed	0.182	0.604	0.496	0.566	0.273	0.36	0.491	0.674	0.581
F fixed	0.531	0.95	0.956	0.888	0.833	0.758	0.672	1.12	0.96
G fixed	4.33	1.26	1.66	1.23	2.16	0.83	0.808	1.13	0.953
H fixed	0.804	0.887	0.982	1.07	2.29	0.75	0.824	0.94	1.06
I fixed	0.534	0.991	0.898	0.982	0.526	1.23	1.98	0.894	0.914
K fixed	1.08	0.844	1.36	1.16	1.4	0.569	0.854	1.06	0.99
L fixed	0.461	0.915	0.81	0.835	0.656	1.03	0.894	0.952	0.868
M fixed	0.447	0.822	0.881	0.875	0.815	1.04	0.85	0.961	0.989
N fixed	2.13	0.787	0.897	0.746	0.737	0.509	0.701	0.798	0.875
P fixed	0.801	1.03	1.03	1.1	1.64	4.27	2.6	1.43	1.54
Q fixed	0.522	1.19	0.974	0.999	0.71	0.676	0.829	0.849	0.96
R fixed	2.08	1.06	1.73	1.31	1.19	0.959	0.963	1.11	1.49
V fixed	0.518	1.06	0.922	0.845	0.677	0.88	1.5	0.963	0.796
W fixed	0.999	0.849	0.853	1.59	0.813	0.601	0.74	1.09	1.13
Y fixed	0.534	1.08	0.98	1.29	1.09	0.695	0.834	1.02	1.1
pThr fixed	0.289	0.402	0.518	0.44	0.352	2.01	0.864	0.838	0.845
pTyr fixed	0.242	0.36	0.605	0.544	0.276	0.401	0.468	0.658	0.65

STK32B, construct: Full length, human (from UniProt Q9NY57)
relative phosphorylation
Details	at +1	at +2	at +3	at +4	at -1	at -2	at -3	at -4	at -5
A fixed	0.577	0.493	0.744	0.79	0.938	0.933	0.994	1.1	1.08
D fixed	0.363	0.882	0.608	0.539	0.556	0.56	1.54	1.15	1.08
E fixed	0.932	1.81	0.743	0.769	0.726	0.921	1.35	1.59	0.878
F fixed	2.31	0.995	1.37	0.745	0.832	1.35	0.754	0.804	0.938
G fixed	0.389	0.269	0.43	0.849	1.26	0.739	0.909	1.24	1.19
H fixed	0.784	1.61	1.11	1.16	0.992	1.22	0.871	0.975	1.14
I fixed	1.91	0.897	1.47	1.04	0.557	0.77	0.702	0.66	0.798
K fixed	0.75	0.796	1.1	1.84	1.32	0.656	1.05	1.1	1.35
L fixed	1.1	0.767	1.29	0.812	0.884	1.7	0.77	0.744	0.78
M fixed	2.15	0.934	1.17	0.898	1.15	1.2	0.776	0.906	0.797
N fixed	0.545	0.704	0.659	0.828	0.878	1.02	0.941	0.983	1.03
P fixed	0.259	0.214	0.356	1.13	1.46	1.23	1.03	1.1	0.987
Q fixed	1.01	0.86	0.826	0.864	1.03	0.88	0.753	0.88	0.88
R fixed	0.939	1.01	1.05	1.87	2.02	1.02	2.17	1.32	1.39
V fixed	1.26	0.765	1.4	0.742	0.593	0.797	0.821	0.764	0.736
W fixed	0.713	1.39	1.41	1.14	0.634	0.755	0.65	0.784	0.844
Y fixed	1	2.61	1.24	0.989	1.16	1.25	0.915	0.903	1.11
pThr fixed	1.12	2.27	3.42	1.86	1.03	1.74	9.83	2.88	1.67
pTyr fixed	2.4	63.9	6.44	10.7	1.72	7.31	2.44	1.38	1.77
